Numbering of substitutions follows the chain as printed.

For test [1], the target named is T1, biotinylated human recombinant IL-12Rβ2 (produced in-house) (human, UniProt Q99665 24-622, random biotinylated).
T1 construct: Soluble recombinant protein used for panning, ELISA and BLI; also called hIL-12RB2; hIL12RB2
T1 sequence: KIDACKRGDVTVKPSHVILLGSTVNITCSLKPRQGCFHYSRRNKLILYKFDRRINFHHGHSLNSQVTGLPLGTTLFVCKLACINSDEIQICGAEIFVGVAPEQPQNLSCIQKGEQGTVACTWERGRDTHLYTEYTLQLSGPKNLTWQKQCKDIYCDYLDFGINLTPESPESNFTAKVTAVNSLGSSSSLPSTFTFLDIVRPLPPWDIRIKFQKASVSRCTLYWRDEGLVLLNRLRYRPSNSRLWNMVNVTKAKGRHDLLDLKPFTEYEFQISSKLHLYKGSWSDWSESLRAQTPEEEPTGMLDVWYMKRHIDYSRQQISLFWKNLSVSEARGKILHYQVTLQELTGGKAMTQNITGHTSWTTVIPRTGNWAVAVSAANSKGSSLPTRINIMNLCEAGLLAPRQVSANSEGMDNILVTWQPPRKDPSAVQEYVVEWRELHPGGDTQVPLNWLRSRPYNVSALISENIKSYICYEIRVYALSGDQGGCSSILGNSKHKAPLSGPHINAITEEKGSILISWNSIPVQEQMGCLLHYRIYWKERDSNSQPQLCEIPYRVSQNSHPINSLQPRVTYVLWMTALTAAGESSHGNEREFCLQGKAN
Nature of the test: BLI (Octet Red), periplasmic extract on biotinylated human IL-12Rβ2 on streptavidin tips, 1:1 model. A general note: BLI is a label-free optical method that tracks binding on a fibre tip over time.

Test [2] addresses T2, human IL-12Rβ2 expressed on cells (human, UniProt Q99665 24-862).
T2 construct: the cell lines are described by plasmid or cDNA number only; also called hIL-12RB2; HEK293T transiently transfected with human IL-12Rβ2
T2 sequence: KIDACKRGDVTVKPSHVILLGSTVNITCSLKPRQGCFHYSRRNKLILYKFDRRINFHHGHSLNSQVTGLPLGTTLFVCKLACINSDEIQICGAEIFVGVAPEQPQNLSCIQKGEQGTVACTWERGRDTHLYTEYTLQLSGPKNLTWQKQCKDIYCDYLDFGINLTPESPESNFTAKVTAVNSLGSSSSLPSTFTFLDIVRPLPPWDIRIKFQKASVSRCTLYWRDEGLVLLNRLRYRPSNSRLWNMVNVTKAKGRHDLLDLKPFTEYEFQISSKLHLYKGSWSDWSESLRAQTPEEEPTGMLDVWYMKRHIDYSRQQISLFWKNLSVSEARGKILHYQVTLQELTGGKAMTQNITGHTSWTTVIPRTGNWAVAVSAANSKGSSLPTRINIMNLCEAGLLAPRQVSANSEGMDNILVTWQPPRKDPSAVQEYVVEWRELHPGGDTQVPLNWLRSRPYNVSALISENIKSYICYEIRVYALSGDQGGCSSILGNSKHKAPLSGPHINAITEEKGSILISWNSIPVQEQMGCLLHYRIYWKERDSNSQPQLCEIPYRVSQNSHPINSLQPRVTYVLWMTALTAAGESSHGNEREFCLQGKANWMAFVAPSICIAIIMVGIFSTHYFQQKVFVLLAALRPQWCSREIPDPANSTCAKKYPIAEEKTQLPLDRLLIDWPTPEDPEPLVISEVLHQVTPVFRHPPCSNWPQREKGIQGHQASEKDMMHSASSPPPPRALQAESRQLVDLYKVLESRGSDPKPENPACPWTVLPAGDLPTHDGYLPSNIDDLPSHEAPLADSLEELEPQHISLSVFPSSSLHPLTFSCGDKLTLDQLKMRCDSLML
Nature of the test: flow cytometry, periplasmic extract VHH-HA on HEK293T cells transiently expressing human IL-12Rβ2. For orientation: A flow cytometer gives signals particle by particle.

Test [3] concerns the target T3, biotinylated mouse recombinant IL-12Rβ2 (produced in-house) (mouse, UniProt P97378 24-637, random biotinylated).
T3 construct: Soluble recombinant protein used for panning, ELISA and BLI; also called mIL-12RB2; mIL12RB2
T3 sequence: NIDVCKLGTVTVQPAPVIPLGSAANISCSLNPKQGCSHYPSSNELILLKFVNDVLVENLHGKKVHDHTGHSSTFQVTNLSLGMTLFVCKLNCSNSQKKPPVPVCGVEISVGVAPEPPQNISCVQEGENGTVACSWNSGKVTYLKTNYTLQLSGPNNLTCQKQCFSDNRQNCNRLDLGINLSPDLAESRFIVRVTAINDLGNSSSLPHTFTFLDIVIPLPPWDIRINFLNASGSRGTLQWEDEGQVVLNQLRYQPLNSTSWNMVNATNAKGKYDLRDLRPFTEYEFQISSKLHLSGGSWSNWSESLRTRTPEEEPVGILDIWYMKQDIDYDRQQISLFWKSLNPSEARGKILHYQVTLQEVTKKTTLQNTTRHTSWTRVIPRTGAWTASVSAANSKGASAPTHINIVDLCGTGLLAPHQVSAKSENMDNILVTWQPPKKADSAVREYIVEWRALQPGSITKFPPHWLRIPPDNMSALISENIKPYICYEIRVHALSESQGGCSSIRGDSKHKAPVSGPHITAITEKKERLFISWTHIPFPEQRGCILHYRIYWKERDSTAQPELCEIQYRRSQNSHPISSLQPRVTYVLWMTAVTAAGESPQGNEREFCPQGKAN
The test is described as follows: ELISA, periplasmic extract on biotinylated mouse IL-12Rβ2; signal over streptavidin control well. Background: In an ELISA, binding on a coated surface is turned into a signal by an enzyme label.

Test [4] has as its target T3, biotinylated mouse recombinant IL-12Rβ2 …. Nature of the test: ELISA, periplasmic extract on biotinylated mouse IL-12Rβ2.
Test [5] deals with T1, biotinylated human recombinant IL-12Rβ2 …. The test is described as follows: ELISA, periplasmic extract on biotinylated human IL-12Rβ2; signal over streptavidin control well.
Test [6] has the same target. The test is described as follows: BLI (Octet Red), periplasmic extract on biotinylated human IL-12Rβ2 on streptavidin tips.
In test [7] the target is T4, biotinylated recombinant human IL-12Rβ2 (produced in-house) (human, UniProt Q99665 24-622, random biotinylated).
T4 construct: also called hIL-12RB2; hIL12RB2
T4 sequence: T1 sequence
The test is described as follows: ELISA, P.E. VHH on biotinylated hIL-12RB2, signal ratio to control well.

Test [8] deals with T4, biotinylated recombinant human IL-12Rβ2 …. The test is described as follows: BLI (Octet), P.E. VHH on immobilised biotinylated hIL-12RB2, 1:1 model.
Test [9] concerns the target T5, biotinylated recombinant mouse IL-12Rβ2 (produced in-house) (mouse, UniProt P97378 24-637, random biotinylated).
T5 construct: also called mIL-12RB2; mIL12RB2
T5 sequence: T3 sequence
The test is described as follows: ELISA, P.E. VHH on biotinylated mIL-12RB2, signal ratio to control well.

Test [10] has as its target T5, biotinylated recombinant mouse IL-12Rβ2 …. Nature of the test: ELISA, P.E. VHH on biotinylated mIL-12RB2.
The target of test [11] is T4, biotinylated recombinant human IL-12Rβ2 …. Nature of the test: BLI (Octet), P.E. VHH on immobilised biotinylated hIL-12RB2.
Test [12] deals with T6, human IL-12Rβ2 expressed on cells (human, UniProt Q99665 24-862).
T6 construct: HEK293T cells transiently transfected with a human IL-12Rβ2 plasmid (Genscript OHu21785); also called hIL-12RB2
T6 sequence: T2 sequence
The test is described as follows: flow cytometry, P.E. VHH on HEK293T cells transiently expressing hIL-12RB2.

B1: anti-IL-12Rβ2 VHH clone 3CAHS41 (clone ID 20394) (VHH)
VHH: QVQLQESGGGLVQAGDSLRLSCAASGRTFDTYIVGWFRQAPGKEREFVSALSWSDDTTIRDDSLRGRFTISRDNAKNTVYLLMNSLKPEDTAVYYCAAKAKPPAATWSSYRNREWYDYWGQGTQVTVSS
notes: Tested as periplasmic extract; not shown: C-terminal HA tag
The term koff denotes the rate constant with which the complex falls apart. Regarding B1, the koff in test [1] was 0.00441 s⁻¹. Besides, in test [2], the “% cells bound” value came to 43.3% and the dMFI turned out to be 971. For the same molecule, the “mIL12RB2/control (ELISA)” value in test [3] was 1.35 ratio. In addition, the binding result in test [4] was “no binding”. In test [5], the “hIL12RB2/control (ELISA)” value amounted to 8.77 ratio. Further, the Response in test [6] worked out at 0.509.

B2: anti-IL-12Rβ2 VHH clone 3CAHS171 (clone ID 20407) (VHH)
VHH: QVQLQESGGGLVQPGGSLRLTCVASGFPFSTHAMSWVRQPPGKGREWISAINSGGDSTDYADSVMGRFTISRDNAKNTVYLQMNSLKSEDTAAYYCAKYEDCSDYDCSSRASWGQGTQVTVSS
notes: as for B1
For the molecule B2, the koff in test [1] is 0.00431 s⁻¹. Further, in test [2], the “% cells bound” value was 47.5% and the dMFI is 1180. Moreover, the “mIL12RB2/control (ELISA)” value in [3] is 0.96 ratio. Further, in [4], the binding result is reported as “no binding”. The “hIL12RB2/control (ELISA)” value in test [5] came out at 3.27 ratio. Moreover, the Response in [6] amounted to 0.195.

B3: anti-IL-12Rβ2 VHH clone 3CRHS128 (VHH, not shown: small tags and cut ends)
VHH: QVQLQESGGGLVQPGGSLRLSCAASGFTFSTSGMHWFRQAPGKGLEWVSSIGATVDNSYYASSVKGRFTISRDNAKNTLYLLMNSLKSEDTAVYYCSKDPTGSSRGQGTQVTVSS
notes: tested as periplasmic extract; also called SCRHS128
In the case of B3, in [7], the “ELISA hIL12RB2/control” value was 3.65. In addition, in test [8], the koff came to 0.00274 s⁻¹. Further, the “ELISA mIL12RB2/control” value in [9] came out at 0.98. Also, the binding result in [10] was “no binding”. For the same molecule, in test [11], the Response was 0.294. The molecule further gave a dMFI in test [12] of 1380.

B4: anti-IL-12Rβ2 VHH clone 3CAHS102 (clone ID 20399) (VHH)
VHH: QVQLQESGGGLVQPGGSLRLSCAASGSILRINLMGWYRQVPGKQRELVAEMSTGGSTTYVDSVEGRFTISRDNAKNTVYLQMNSLKPEDTAVYYCNAKAWQLGRLENDDWGQGTQVTVSS
notes: as for B1
Regarding B4, the koff in test [1] was 0.00267 s⁻¹. Moreover, in test [2], the “% cells bound” value was 44.7% and the dMFI was 994. Also, the “mIL12RB2/control (ELISA)” value in [3] amounted to 1.02 ratio. Further, the binding result in [4] is “no binding”. Moreover, the “hIL12RB2/control (ELISA)” value in test [5] was found to be 3.54 ratio. In test [6], the Response stood at 0.323.

B5: anti-IL-12Rβ2 VHH clone 3CRH5 (VHH, not shown: small tags and cut ends)
VHH: QVQLQESGGGLVQAGGSLVLSCAASGSAALIFLMSWYRQAPGKQRELVAEVSRGGSTTYADSVEGRFTISRDNAKNIVDLQMNSLKPEDTAVYYCKADQNYGDSLRSSWGQGTQVTVSS
notes: tested as periplasmic extract; also called 3CRHS
Regarding B5, the “ELISA hIL12RB2/control” value in [7] is 8.64. In test [8], the koff turned out to be 0.00337 s⁻¹. The “ELISA mIL12RB2/control” value in [9] was 0.81. In addition, in test [10], the binding result is listed as “no binding”. Further, the Response in test [11] is 0.491. In test [12], the dMFI came to 735.

B6: anti-IL-12Rβ2 VHH clone 3CRH25 (clone ID 20378) (VHH)
VHH: QVQLQESGGGLVQAGDSLRLSCTASGHTFSRYTTIGWFRQAPGKDREFVAAIRWSGDITDYADAVKGRFTISRDNVKNTVYLQMNSLNPEDTAVYYCARGYSEYGVLSRNRGLYAYWGQGTQVTVSS
notes: as for B1
For the molecule B6, in test [1], the koff is 0.00205 s⁻¹. Also, in test [2], the “% cells bound” value worked out at 34.8% and the dMFI was 520. In addition, the “mIL12RB2/control (ELISA)” value in test [3] was determined as 1.04 ratio. Besides, the binding result in [4] is “no binding”. In test [5], the “hIL12RB2/control (ELISA)” value amounted to 5.16 ratio. In addition, the Response in test [6] was determined as 0.523.

B7: anti-IL-12Rβ2 VHH clone 3CRHS54 (VHH, not shown: small tags and cut ends)
VHH: QVQLQESGGGLVQPGGSLRLSCTASGSIVSIYNMDWYRQAPGNEREWVASITSSGDPYYDGSAKGRFTISRDNAKMTVYLQMNSLEPEDTAVYFCKVPTEKGNYWGQGTQVTVSS
notes: tested as periplasmic extract; also called 3CRHSS4
Consider B7, for which, in [7], the “ELISA hIL12RB2/control” value came to 7.85. In addition, the koff in [8] stood at 0.00272 s⁻¹. Also, the “ELISA mIL12RB2/control” value in test [9] came to 1.26. Besides, the binding result in test [10] is “no binding”. The Response in test [11] is 0.203. In addition, in [12], the dMFI was determined as 870.

B8: anti-IL-12Rβ2 VHH clone 3CRHS9 (VHH, not shown: small tags and cut ends)
VHH: B7 VHH with E86K, F94Y
notes: tested as periplasmic extract
As for B8, the “ELISA hIL12RB2/control” value in test [7] worked out at 5.08. In [8], the koff came out at 0.0034 s⁻¹. Also, the “ELISA mIL12RB2/control” value in test [9] is 1.09. Further, the binding result in test [10] is “no binding”. For the same molecule, the Response in test [11] turned out to be 0.222. Besides, the dMFI in test [12] came out at 941.

B9: anti-IL-12Rβ2 VHH clone 3CRHS51 (VHH, not shown: small tags and cut ends)
VHH: QVQLQESGGGLVQPGGSLRLSCAASGFTFSTYAMSWVRQAPGKGLEWVSAVNSGGLSTDYADSVEGRFTISRDDAKNMLFLQMNRLKPEDTARYYCAKYEDCSDYVCDRAGYWGQGTQVTVSS
notes: tested as periplasmic extract; also called 3CRASS1
As to B9, the off-rate constant (koff) in test [8] worked out at 0.0043 s⁻¹. In test [10], the binding result was “no binding”. Besides, in test [11], the Response was determined as 0.327. The molecule further registered a dMFI in test [12] of 1140.

The record behind these values is patent US20260209362A1 (VIB VZW, published 2026).
